Test results from PMC3209416.

Substrate: CCCCC(O)CC(=O)C(=O)O
Test: purified protein
Format: biochemical, Thermotoga maritima
Conditions: retro-aldol cleavage, HEPES 100 mM pH 7.5, 34 °C

B1: T. maritima KDPG aldolase (wt-TMA; TM KDPG aldolase) (Thermotoga maritima MSB8; N150I) (protein)
chain: MKMEELFKKHKIVAVLRANSVEEAKEKALAVFEGGVHLIEITFTVPDADTVIKELSFLKEKGAIIGAGTVTSVEQCRKAVESGAEFIVSPHLDEEISQFCKEKGVFYMPGVMTPTELVKAMKLGHTILKLFPGEVVGPQFVKAMKGPFPIVKFVPTGGVNLDNVCEWFKAGVLAVGVGSALVKGTPDEVREKAKAFVEKIRGCTE
In the case of B1, the Km (mutant TM 8) is reported as 49 ± 19 mM, the kcat (mutant TM 8) is reported as 1.2 ± 0.3 s⁻¹ and the kcat/Km (mutant TM 8) is reported as 25 ± 5 M⁻¹ s⁻¹.

B2: T. maritima KDPG aldolase (wt-TMA; TM KDPG aldolase) (Thermotoga maritima MSB8; I52F/T185A/V135M) (protein)
chain: MKMEELFKKHKIVAVLRANSVEEAKEKALAVFEGGVHLIEITFTVPDADTVFKELSFLKEKGAIIGAGTVTSVEQCRKAVESGAEFIVSPHLDEEISQFCKEKGVFYMPGVMTPTELVKAMKLGHTILKLFPGEMVGPQFVKAMKGPFPNVKFVPTGGVNLDNVCEWFKAGVLAVGVGSALVKGAPDEVREKAKAFVEKIRGCTE
With B2 the Km (mutant TM 6) was 8 ± 3 mM, the kcat (mutant TM 6) was 0.13 ± 0.02 s⁻¹ and the kcat/Km (mutant TM 6) was 17 ± 6 M⁻¹ s⁻¹.

B3: T. maritima KDPG aldolase (wt-TMA; TM KDPG aldolase) (Thermotoga maritima MSB8; V136M) (protein)
chain: MKMEELFKKHKIVAVLRANSVEEAKEKALAVFEGGVHLIEITFTVPDADTVIKELSFLKEKGAIIGAGTVTSVEQCRKAVESGAEFIVSPHLDEEISQFCKEKGVFYMPGVMTPTELVKAMKLGHTILKLFPGEVMGPQFVKAMKGPFPNVKFVPTGGVNLDNVCEWFKAGVLAVGVGSALVKGTPDEVREKAKAFVEKIRGCTE
B3 showed a Km (mutant TM 4) of 23 ± 4 mM, a kcat (mutant TM 4) of 0.36 ± 0.02 s⁻¹ and a kcat/Km (mutant TM 4) of 16 ± 2 M⁻¹ s⁻¹.

B4: T. maritima KDPG aldolase (wt-TMA; TM KDPG aldolase) (Thermotoga maritima MSB8; A30V) (protein)
chain: MKMEELFKKHKIVAVLRANSVEEAKEKALVVFEGGVHLIEITFTVPDADTVIKELSFLKEKGAIIGAGTVTSVEQCRKAVESGAEFIVSPHLDEEISQFCKEKGVFYMPGVMTPTELVKAMKLGHTILKLFPGEVVGPQFVKAMKGPFPNVKFVPTGGVNLDNVCEWFKAGVLAVGVGSALVKGTPDEVREKAKAFVEKIRGCTE
B4 gave a Km (mutant TM 5) of 14 ± 5 mM, a kcat (mutant TM 5) of 0.75 ± 0.1 s⁻¹ and a kcat/Km (mutant TM 5) of 54 ± 10 M⁻¹ s⁻¹.

B5: T. maritima KDPG aldolase (wt-TMA; TM KDPG aldolase) (Thermotoga maritima MSB8; G34R/R190I/V172A) (protein)
chain: MKMEELFKKHKIVAVLRANSVEEAKEKALAVFERGVHLIEITFTVPDADTVIKELSFLKEKGAIIGAGTVTSVEQCRKAVESGAEFIVSPHLDEEISQFCKEKGVFYMPGVMTPTELVKAMKLGHTILKLFPGEVVGPQFVKAMKGPFPNVKFVPTGGVNLDNVCEWFKAGALAVGVGSALVKGTPDEVIEKAKAFVEKIRGCTE
B5 gave a Km (mutant TM 1) of 9 ± 2 mM, a kcat (mutant TM 1) of 0.07 ± 0.01 s⁻¹ and a kcat/Km (mutant TM 1) of 9.3 ± 1.8 M⁻¹ s⁻¹.

B6: T. maritima KDPG aldolase (wt-TMA; TM KDPG aldolase) (Thermotoga maritima MSB8; G83E/K9T) (protein)
chain: MKMEELFKTHKIVAVLRANSVEEAKEKALAVFEGGVHLIEITFTVPDADTVIKELSFLKEKGAIIGAGTVTSVEQCRKAVESEAEFIVSPHLDEEISQFCKEKGVFYMPGVMTPTELVKAMKLGHTILKLFPGEVVGPQFVKAMKGPFPNVKFVPTGGVNLDNVCEWFKAGVLAVGVGSALVKGTPDEVREKAKAFVEKIRGCTE
Protein B6 has a Km (mutant TM 2) of 90 ± 20 mM, a kcat (mutant TM 2) of 0.5 ± 0.1 s⁻¹ and a kcat/Km (mutant TM 2) of 5.5 ± 1 M⁻¹ s⁻¹.
